The text below walks through data of US20140274782A1, “AFFINITY REAGENTS AND METHODS FOR DETECTION, PURIFICATION, AND PROTEOMIC ANALYSIS OF METHYLATED PROTEINS” (The Board of Trustees of the Leland Stanford Junior …, priority 2013, published 2014).

Sequences and labels used below:
T1: G9a and GLP (Homo sapiens, UniProt Q96KQ7+Q9H9B1)
T1 sequence (Q96KQ7 2-1210 limits assumed): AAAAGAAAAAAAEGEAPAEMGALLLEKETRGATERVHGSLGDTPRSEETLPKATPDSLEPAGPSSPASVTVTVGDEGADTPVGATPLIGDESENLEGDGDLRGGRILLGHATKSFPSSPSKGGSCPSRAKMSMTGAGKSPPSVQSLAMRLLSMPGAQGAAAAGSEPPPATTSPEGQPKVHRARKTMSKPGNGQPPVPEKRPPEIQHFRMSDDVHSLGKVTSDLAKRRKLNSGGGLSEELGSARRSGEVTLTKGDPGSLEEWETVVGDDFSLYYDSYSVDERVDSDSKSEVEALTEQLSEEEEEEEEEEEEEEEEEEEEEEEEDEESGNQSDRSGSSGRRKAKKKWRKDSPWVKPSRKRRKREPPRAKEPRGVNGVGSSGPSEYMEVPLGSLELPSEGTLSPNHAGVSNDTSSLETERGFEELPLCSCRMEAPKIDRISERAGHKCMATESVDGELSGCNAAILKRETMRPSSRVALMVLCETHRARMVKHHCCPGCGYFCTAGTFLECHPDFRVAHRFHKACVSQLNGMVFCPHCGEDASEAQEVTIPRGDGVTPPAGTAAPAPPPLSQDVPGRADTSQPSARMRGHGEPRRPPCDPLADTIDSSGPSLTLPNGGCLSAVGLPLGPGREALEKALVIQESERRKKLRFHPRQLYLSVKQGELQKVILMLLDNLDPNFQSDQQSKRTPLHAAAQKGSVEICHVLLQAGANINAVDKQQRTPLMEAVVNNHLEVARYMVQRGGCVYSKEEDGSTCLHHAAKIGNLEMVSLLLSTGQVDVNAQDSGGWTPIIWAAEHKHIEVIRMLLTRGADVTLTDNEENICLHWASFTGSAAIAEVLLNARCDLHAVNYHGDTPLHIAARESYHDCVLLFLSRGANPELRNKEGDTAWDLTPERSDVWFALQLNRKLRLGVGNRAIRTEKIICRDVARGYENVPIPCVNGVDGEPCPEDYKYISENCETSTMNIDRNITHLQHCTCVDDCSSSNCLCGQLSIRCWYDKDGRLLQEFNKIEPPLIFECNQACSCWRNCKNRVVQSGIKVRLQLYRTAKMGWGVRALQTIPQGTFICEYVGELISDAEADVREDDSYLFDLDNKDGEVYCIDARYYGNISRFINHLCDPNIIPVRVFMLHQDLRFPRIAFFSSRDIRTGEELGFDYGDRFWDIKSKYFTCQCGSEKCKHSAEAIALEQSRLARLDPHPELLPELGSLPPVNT
T1 sequence (Q9H9B1 2-1298 limits assumed): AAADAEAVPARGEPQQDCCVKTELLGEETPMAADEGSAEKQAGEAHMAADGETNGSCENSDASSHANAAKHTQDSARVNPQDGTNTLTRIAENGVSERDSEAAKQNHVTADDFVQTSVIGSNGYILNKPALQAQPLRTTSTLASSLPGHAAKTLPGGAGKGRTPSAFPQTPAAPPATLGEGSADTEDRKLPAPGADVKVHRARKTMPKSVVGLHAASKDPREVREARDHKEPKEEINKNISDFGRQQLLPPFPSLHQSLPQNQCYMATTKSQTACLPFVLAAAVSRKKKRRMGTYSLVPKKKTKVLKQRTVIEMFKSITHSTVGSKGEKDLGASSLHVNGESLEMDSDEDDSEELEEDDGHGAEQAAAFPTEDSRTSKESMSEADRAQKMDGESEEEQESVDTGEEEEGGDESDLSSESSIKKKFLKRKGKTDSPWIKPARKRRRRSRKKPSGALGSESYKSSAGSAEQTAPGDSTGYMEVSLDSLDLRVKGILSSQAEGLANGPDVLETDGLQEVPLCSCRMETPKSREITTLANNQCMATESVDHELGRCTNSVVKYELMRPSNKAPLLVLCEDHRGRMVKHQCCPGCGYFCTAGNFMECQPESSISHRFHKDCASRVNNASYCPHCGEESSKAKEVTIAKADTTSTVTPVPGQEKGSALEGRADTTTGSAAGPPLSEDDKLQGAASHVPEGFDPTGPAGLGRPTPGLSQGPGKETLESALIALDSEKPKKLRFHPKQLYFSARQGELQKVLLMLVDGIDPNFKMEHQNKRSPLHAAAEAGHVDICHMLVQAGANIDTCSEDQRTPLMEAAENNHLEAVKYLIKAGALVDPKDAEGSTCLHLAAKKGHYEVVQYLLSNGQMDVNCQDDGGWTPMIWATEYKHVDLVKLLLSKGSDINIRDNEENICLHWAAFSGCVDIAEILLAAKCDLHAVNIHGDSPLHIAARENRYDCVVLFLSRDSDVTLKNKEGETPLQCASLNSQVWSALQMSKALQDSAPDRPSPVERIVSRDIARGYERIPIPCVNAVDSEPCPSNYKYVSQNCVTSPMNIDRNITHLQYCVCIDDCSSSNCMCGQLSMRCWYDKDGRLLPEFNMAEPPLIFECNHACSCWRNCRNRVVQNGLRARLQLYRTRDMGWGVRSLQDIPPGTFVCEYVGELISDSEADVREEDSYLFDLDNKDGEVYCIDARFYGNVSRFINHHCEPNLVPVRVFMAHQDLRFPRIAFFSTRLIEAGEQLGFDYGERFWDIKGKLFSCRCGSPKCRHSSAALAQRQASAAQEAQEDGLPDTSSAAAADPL

B1: HNRNPH1 (protein, UniProt P31943 1-449, looked up)
Heterogeneous nuclear …: MMLGTEGGEGFVVKVRGLPWSCSADEVQRFFSDCKIQNGAQGIRFIYTREGRPSGEAFVELESEDEVKLALKKDRETMGHRYVEVFKSNNVEMDWVLKHTGPNSPDTANDGFVRLRGLPFGCSKEEIVQFFSGLEIVPNGITLPVDFQGRSTGEAFVQFASQEIAEKALKKHKERIGHRYIEIFKSSRAEVRTHYDPPRKLMAMQRPGPYDRPGAGRGYNSIGRGAGFERMRRGAYGGGYGGYDDYNGYNDGYGFGSDRFGRDLNYCFSGMSDHRYGDGGSTFQSTTGHCVHMRGLPYRATENDIYNFFSPLNPVRVHIEIGPDGRVTGEADVEFATHEDAVAAMSKDKANMQHRYVELFLNSTAGASGGAYEHRYVELFLNSTAGASGGAYGSQMMGGMGLSNQSSYGGPASQQLSGGYGGGYGGQSSMSGYDQVLQENSSDFQSNIA
B2: CPSF6 (protein, UniProt Q16630 1-551, looked up)
Cleavage and polyadenylation …: MADGVDHIDIYADVGEEFNQEAEYGGHDQIDLYDDVISPSANNGDAPEDRDYMDTLPPTVGDDVGKGAAPNVVYTYTGKRIALYIGNLTWWTTDEDLTEAVHSLGVNDILEIKFFENRANGQSKGFALVGVGSEASSKKLMDLLPKRELHGQNPVVTPCNKQFLSQFEMQSRKTTQSGQMSGEGKAGPPGGSSRAAFPQGGRGRGRFPGAVPGGDRFPGPAGPGGPPPPFPAGQTPPRPPLGPPGPPGPPGPPPPGQVLPPPLAGPPNRGDRPPPPVLFPGQPFGQPPLGPLPPGPPPPVPGYGPPPGPPPPQQGPPPPPGPFPPRPPGPLGPPLTLAPPPHLPGPPPGAPPPAPHVNPAFFPPPTNSGMPTSDSRGPPPTDPYGRPPPYDRGDYGPPGREMDTARTPLSEAEFEEIMNRNRAISSSAISRAVSDASAGDYGSAIETLVTAISLIKQSKVSADDRCKVLISSLQDCLHGIESKSYGSGSRRERSRERDHSRSREKSRRHKSRSRDRHDDYYRERSRERERHRDRDRDRDRERDREREYRHR
B3: RALY (protein, UniProt Q9UKM9 2-306, looked up)
RNA-binding protein Raly: SLKLQASNVTNKNDPKSINSRVFIGNLNTALVKKSDVETIFSKYGRVAGCSVHKGYAFVQYSNERHARAAVLGENGRVLAGQTLDINMAGEPKPDRPKGLKRAASAIYSGYIFDYDYYRDDFYDRLFDYRGRLSPVPVPRAVPVKRPRVTVPLVRRVKTNVPVKLFARSTAVTTSSAKIKLKSSELQAIKTELTQIKSNIDALLSRLEQIAAEQKANPDGKKKGDGGGAGGGGGGGGSGGGGSGGGGGGGSSRPPAPQENTTSEAGLPQGEARTRDDGDEEGLLTHSEEELEHSQDTDADDGALQ
B4: ORC3 (protein, UniProt Q9UBD5 1-711, looked up)
Origin recognition complex …: MATSSMSKGCFVFKPNSKKRKISLPIEDYFNKGKNEPEDSKLRFETYQLIWQQMKSENERLQEELNKNLFDNLIEFLQKSHSGFQKNSRDLGGQIKLREIPTAALVLGVNVTDHDLTFGSLTEALQNNVTPYVVSLQAKDCPDMKHFLQKLISQLMDCCVDIKSKEEESVHVTQRKTHYSMDSLSSWYMTVTQKTDPKMLSKKRTTSSQWQSPPVVVILKDMESFATKVLQDFIIISSQHLHEFPLILIFGIATSPIIIHRLLPHAVSSLLCIELFQSLSCKEHLTTVLDKLLLTTQFPFKINEKVLQVLTNIFLYHDFSVQNFIKGLQLSLLEHFYSQPLSVLCCNLPEAKRRINFLSNNQCENIRRLPSFRRYVEKQASEKQVALLTNERYLKEETQLLLENLHVYHMNYFLVLRCLHKFTSSLPKYPLGRQIRELYCTCLEKNIWDSEEYASVLQLLRMLAKDELMTILEKCFKVFKSYCENHLGSTAKRIEEFLAQFQSLDETKEEEDASGSQPKGLQKTDLYHLQKSLLEMKELRRSKKQTKFEVLRENVVNFIDCLVREYLLPPETQPLHEVVYFSAAHALREHLNAAPRIALHTALNNPYYYLKNEALKSEEGCIPNIAPDICIAYKLHLECSRLINLVDWSEAFATVVTAAEKMDANSATSEEMNEIIHARFIRAVSELELLGFIKPTKQKTDHVARLTWGGC
B5: HPSE2 (protein, UniProt Q8WWQ2 42-592, looked up)
Inactive heparanase-2: GDRRPLPVDRAAGLKEKTLILLDVSTKNPVRTVNENFLSLQLDPSIIHDGWLDFLSSKRLVTLARGLSPAFLRFGGKRTDFLQFQNLRNPAKSRGGPGPDYYLKNYEDDIVRSDVALDKQKGCKIAQHPDVMLELQREKAAQMHLVLLKEQFSNTYSNLILTARSLDKLYNFADCSGLHLIFALNALRRNPNNSWNSSSALSLLKYSASKKYNISWELGNEPNNYRTMHGRAVNGSQLGKDYIQLKSLLQPIRIYSRASLYGPNIGRPRKNVIALLDGFMKVAGSTVDAVTWQHCYIDGRVVKVMDFLKTRLLDTLSDQIRKIQKVVNTYTPGKKIWLEGVVTTSAGGTNNLSDSYAAGFLWLNTLGMLANQGIDVVIRHSFFDHGYNHLVDQNFNPLPDYWLSLLYKRLIGPKVLAVHVAGLQRKPRPGRVIRDKLRIYAHCTNHHNHNYVRGSITLFIINLHRSRKKIKLAGTLRDKLVHQYLLQPYGQEGLKSKSVQLNGQPLVMVDDGTLPELKPRPLRAGRTLVIPPVTMGFYVVKNVNALACRYR

For one test, the target named is T1, G9a and GLP. The test is described as follows: Triple SILAC pull-down after UNC0638 treatment of 293T cells, DMSO/UNC0638 ratio of protein captured by 3×MBT.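 Also: mass spectrometry (Q-Exactive) SILAC quantitation, DMSO/UNC0638 ratio computed after subtracting 3×MBTD355N mutant pull-down background, only proteins with at least twofold 3×MBT over mutant signal considered.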 It counts as cell-based. More on the design: endogenous in cells; host or cells: HEK 293T. Particulars: SILAC ratio DMSO/UNC0638 of protein pulled down with 3xMBT; UNC0638 in heavy SILAC media.
With B1, the “Relative to UNC0638 UNC Heavy” value is 0.24 log base 2.
Still for that read-out and setting: next, B2: 0.30 log base 2; B3: 0.12 log base 2; B4: 0.25 log base 2.

Staying with this test, now noted: SILAC ratio DMSO/UNC0638 of protein pulled down with 3xMBT; UNC0638 in light SILAC media.
B1: the “Relative to UNC0638 UNC Light” value turned out to be 0.19 log base 2.
Still for that read-out and setting: next, B2: 0.09 log base 2; B3: 0.31 log base 2.
On the same count and under the same terms, the figure for B4 is 0.17 log base 2; for B5 it is 4.14 log base 2.

Staying with this test, now noted: average of UNC Light and UNC Heavy experiments.
B1: the “Relative to UNC0638 Average” value is recorded as 0.21 log base 2.
For B2, the “Relative to UNC0638 Average” value is 0.20 log base 2.
As to B3, the “Relative to UNC0638 Average” value came out at 0.21 log base 2.
Same read-out and setting: next, B4: 0.21 log base 2.
Regarding B5, the “Relative to UNC0638 Average” value is given as 4.14 log base 2.

In a further test the test system is 3×MBT domain of L3MBTL1. The test is described as follows: Triple SILAC pull-down, 3xMBT/3xMBTD355N ratio (cytoplasmic, nuclear and chromatin fractions of 293T cells).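 Also: proteins quantified with MaxQuant, requiring at least two unique peptides and quantification in both label directions, normalized to the mean of proteins from a digested loading control.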 The test is classed as binding, human. Particulars: SILAC ratio, pull-down 3xMBT vs 3xMBTD355N; experiment with UNC0638 in heavy SILAC media.
For the molecule B1, the “3xMBT/D355N UNC Heavy” value is on record as 1.85 log base 2.
As for B2, the “3xMBT/D355N UNC Heavy” value was 1.89 log base 2.
On the same count and under the same terms, the figure for B3 is 1.15 log base 2.
For B4, the “3xMBT/D355N UNC Heavy” value stood at 1.54 log base 2.
On the same count and under the same terms, next, B5: −0.14 log base 2.

Still in this test, the particulars now being: SILAC ratio, pull-down 3xMBT vs 3xMBTD355N; experiment with UNC0638 in light SILAC media.
In the case of B1, the “3xMBT/D355N UNC Light” value is on record as 2.27 log base 2.
The same measure, in the same setting: next, B2: 3.10 log base 2; B3: 3.37 log base 2; B4: 2.54 log base 2.
The same measure, in the same setting: the figure for B5 is 3.81 log base 2.
